From paper PMC11998529

Target: mitochondrial antiviral signaling protein (MAVS), full length, Flag-tagged (human (cDNA from HEK293T)) (UniProt Q7Z434)
Chain of UniProt Q7Z434 (Q7Z434 whole entry): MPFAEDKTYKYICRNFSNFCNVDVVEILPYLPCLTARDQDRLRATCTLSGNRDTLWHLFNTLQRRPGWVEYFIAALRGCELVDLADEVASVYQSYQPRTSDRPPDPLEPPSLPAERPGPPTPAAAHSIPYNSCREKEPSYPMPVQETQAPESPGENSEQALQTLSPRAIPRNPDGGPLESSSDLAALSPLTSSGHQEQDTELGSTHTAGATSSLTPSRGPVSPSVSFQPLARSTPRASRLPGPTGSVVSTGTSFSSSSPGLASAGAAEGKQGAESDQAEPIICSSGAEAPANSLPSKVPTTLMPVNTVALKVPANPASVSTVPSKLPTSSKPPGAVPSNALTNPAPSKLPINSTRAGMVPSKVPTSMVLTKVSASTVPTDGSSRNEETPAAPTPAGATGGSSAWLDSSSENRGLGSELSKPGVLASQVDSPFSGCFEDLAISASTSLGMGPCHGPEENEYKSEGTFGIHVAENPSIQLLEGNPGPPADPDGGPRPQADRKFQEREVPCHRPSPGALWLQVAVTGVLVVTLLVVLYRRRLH

Substance: EV-D68 structural protein VP3, HA-tagged (from UniProt Q68T42 318-552) (natural protein)
- inhibition of MAVS-activated NF-κB promoter activity, dual-luciferase reporter in HEK293T, 600 ng VP3-HA plasmid: 70%
